Laboratory results: PMC6370785

Key:
[1] = biological target: recombinant human TRAIL/Apo2 Ligand (rhTRAIL) (human) (UniProt P50591); assay: SDS-PAGE and Western blot; 100 ng rhTRAIL as positive control on the same blot; whether BS3 was added to it is not told
[2] = biological target: soluble TRAIL (sTRAIL), secretable trimer-forming variant of human TRAIL (human | yeast) (UniProt P50591); assay: cross-linking; 293T culture supernatant (48 h after transfection) with 1 mM BS3, 4-20% SDS-PAGE, Western blot with anti-TRAIL
[3] = biological target: soluble TRAIL (sTRAIL), secretable trimer-forming variant of human TRAIL (human | yeast) (UniProt P50591); assay: SDS-PAGE and Western blot without cross-linker; 293T culture supernatant (48 h after transfection) without BS3, 4-20% SDS-PAGE, Western blot with anti-TRAIL

stoichiometry N [1] | stoichiometry N [2] | stoichiometry N [3] | Substance
3 |  |  | recombinant human TRAIL/Apo2 Ligand (rhTRAIL) (from UniProt P50591 1-281)
 | 3 | 2 | soluble TRAIL (sTRAIL), secretable trimer-forming variant of human TRAIL (from UniProt P50591 114-281) (ligand)
